The values below are quoted from earlier work in publication PMC6783463.

In general, Kd refers to the constant that tells how readily two partners part at equilibrium.

The target of this data set is PTH (15-34) 15-34 (Homo sapiens) (UniProt P01270). Conditions: cited from earlier work.
UniProt P01270, sequence (P01270 15-34): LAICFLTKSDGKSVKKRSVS

Take PTH1R ECD (from UniProt Q03431): the Kd was 1 µM.
